Experiments:
[1] = test system: Human glioma cell line, U87MG cells; test: Accumulation of radiolabeled drug in tumor and organ of tumor-bearing mice; type: in vivo, Balb/c-nu/nu mice; conditions: for Ratio of accumulation in tumor to that in tissue: Tumor/Blood / Ratio of accumulation in tumor to that in tissue: Tumor/Intestine / Ratio of accumulation in tumor to that in tissue: Tumor/Liver: 1 hour after administration; for Accumulated amount in tissue: Blood / Accumulated amount in tissue: Intestine / Accumulated amount in tissue: Kidney / Accumulated amount in tissue: Liver / Accumulated amount in tissue: Lung / Accumulated amount in tissue: Stomach / Accumulated amount in tissue: Tumor: 1 hour after tail vein administration
Protocol: Human glioma cell line, U87MG cells at 5×10^6 cells/mouse were administered subcutaneously in the left femur of Balb/c-nu/nu mice at 4 weeks of age. The mice bearing the tumor of 0.5 g in size were used for a body distribution experiment.
A ^99mTc-GH solution with [GH]=4.0 mg/mL was obtained by adding 750 μL (1.58 μCi) of a solution of Na[^99mTcO4] in saline eluted from a ^99Mo/^99mTc generator to a lyophilized GH kit (3.0 mg) including α-D-glucoheptonic acid and stannous chloride to perform a reaction at room temperature for 20 minutes. Further, a 2 mM ligand solution was separately prepared by dissolving D-Pen-Hx-cRGDfK (0.8 mg, […]) in 471 μL of 0.1 M Tris hydrochloride buffer (pH 9.0) purged with nitrogen. 140 μL of the ^99mTc-GH solution was added to 140 μL of the ligand solution, they were sufficiently mixed, and then subjected to a reaction at 40° C. for 40 minutes. The reaction solution was diluted to 40-fold with saline so that [Free ligand]=0.025 mM to use as the unpurified sample to be administered.
A ^99mTc-GH solution with [GH]=4.0 mg/mL was obtained by adding 500 μL (970 μCi) of a solution of Na[^99mTcO4] in saline eluted from a ^99Mo/^99mTc generator to a lyophilized GH kit (2.0 mg) including α-D-glucoheptonic acid and stannous chloride to perform a reaction at room temperature for 20 minutes. Further, a 2 mM ligand solution was separately prepared by dissolving TMEC-[N-hexanoate-c(Arg-Gly-Asp-D-Phe-Lys)]2 (hereinafter, sometimes abbreviated as TMEC-RGD2) (0.7 mg, 0.406 μmol) in 200 μL of 0.1 M acetate buffer (pH 3.5) purged with nitrogen. 200 μL of the ^99mTc-GH solution was added to 200 μL of the ligand solution, they were sufficiently mixed, and then subjected to a reaction at 80° C. for one hour. A half amount of the reaction solution (200 μL) was applied to RP-HPLC (mobile phase: A=10 mM phosphate buffer (pH 6.0), B=MeOH; gradient system: 0 to 18 minutes: B=0 to 60%, 18 to 26 minutes: B=60 to 100%, 26 to 31 minutes: B=100%), a fraction eluted at 24 minutes was collected, the organic solvent was distilled off under reduced pressure, and then the residue was diluted with 10% ethanol/saline to use as the purified sample. Further, the other half amount of the reaction solution (200 μL) was diluted to 40-fold with saline so that [Free ligand]=0.025 mM to use as the unpurified sample to be administered.
100 μL of the unpurified ^99mTC-(D-Pen-Hx-cRDGfK)2 sample (about 1.1 μCi) was administered to the tail veins of tumor-bearing Balb/c-nu/nu male mice at 10 weeks of age. There were 5 mice in one group. The mice were sacrificed by beheading 1 hour after the administration. Blood, organs of interest, and the tumor were removed, and the weight of and the radioactivity in each organ were measured.
100 μL of the purified or unpurified ^99mTc-TMEC-RGD2 sample (about 0.5 μCi) was administered to the tail veins of tumor-bearing Balb/c-nu/nu male mice at 10 weeks of age. There were 4 mice in one group. The mice were sacrificed by beheading 1 hour after the administration. Blood, organs of interest, and the tumor were removed, and the weight of and the radioactivity in each organ were measured.

[2] = set-up: species or system ddY-strain male mice; conditions: mouse
Protocol: 100 μL (about 1 μCi) of unpurified ^99mTc-(D-Pen-N-hexanoate-cRGDfK)2 or ^99mTc-(D-Pen-N-hexanoate-cRGDfK)2 purified by RP-HPLC was administered to the tail veins of ddY-strain male mice at 6 weeks of age (three mice for each group). The mice were sacrificed 10 minutes, 1, 3, and 6 hours after the administration, and blood samples were collected. The mice were anatomized, and the weight and radioactivity of each organ were measured. The radioactivity in urine and feces excreted by 6 hours after the administration was also measured.

[3] = Stability of 99mTc complex in buffer; type: physicochemical; conditions: 0.01 M phosphate buffer (pH 6.0), room temperature, after 1, 3, 6, and 24 hours
Protocol: 11. Examination of Stability
Each ^99mTc-labeled compound was purified by RP-HPLC (method 1 or method 2), and then the solvent was distilled off under reduced pressure. The residue was redissolved in 400 μL of 0.01 M phosphate buffer (pH 6.0). This solution was stored at room temperature, and after 1, 3, 6, and 24 hours, its radiochemical purity was analyzed by CAE or RP-HPLC.

[4] = administered after removing the excessive ligand by HPLC
[5] = administered without removing the excessive ligand

With “^99mTc-(D-Pen-N-hexanoate-cRGDfK)2 [^99mTc-(Pen-RGD)2]” the “Ratio accumulated in the tumor to that in each tissue, compared with purified 99mTc-TMEC-RGD2” value ([1]; mouse, in vivo) was “equivalence to or higher than” and the Stability in vivo [2] was “stable in vivo”.

With “^99mTc-(D-penicillamine)2 [^99mTc-(D-Pen)2]” the “Stability in a buffer (radiochemical purity)” value [3] was “higher stability”.

With “^99mTc-TMEC-[N-hexanoate-c(Arg-Gly-Asp-D-Phe-Lys)]2 [^99mTc-TMEC-RGD2]” the “Ratio of accumulation in tumor to that in tissue: Tumor/Blood” value [1, 4] was 4.91 (1.07), the “Ratio of accumulation in tumor to that in tissue: Tumor/Intestine” value [1, 4] was 0.54 (0.10) and the “Ratio of accumulation in tumor to that in tissue: Tumor/Liver” value [1, 4] was 0.65 (0.14). The “Accumulated amount in tissue: Blood” value [1, 4] was 0.72 (0.02) % injected dose/gram tissue, the “Accumulated amount in tissue: Intestine” value [1, 4] was 6.70 (0.75) % injected dose/gram tissue and the “Accumulated amount in tissue: Kidney” value [1, 4] was 16.68 (3.87) % injected dose/gram tissue. For the same substance, the “Accumulated amount in tissue: Liver” value [1, 4] was 5.47 (0.41) % injected dose/gram tissue, the “Accumulated amount in tissue: Lung” value [1, 4] was 2.33 (0.31) % injected dose/gram tissue and the “Accumulated amount in tissue: Stomach” value [1, 4] was 1.20 (0.16) % injected dose. The “Accumulated amount in tissue: Tumor” value [1, 4] was “increased”, the “Accumulated amount in tissue: Tumor” value ([1]; administered after removing the excessive ligand by HPLC, listed as 99mTC-TMEC-RGD2) was 3.54 (0.72) % injected dose/gram tissue and the “Ratio of accumulation in tumor to that in tissue: Tumor/Blood” value [1, 5] was 3.41 (1.55). For the same substance, the “Ratio of accumulation in tumor to that in tissue: Tumor/Intestine” value [1, 5] was 0.37 (0.13), the “Ratio of accumulation in tumor to that in tissue: Tumor/Liver” value [1, 5] was 0.67 (0.31) and the “Accumulated amount in tissue: Blood” value [1, 5] was 0.86 (0.33) % injected dose/gram tissue. The “Accumulated amount in tissue: Intestine” value [1, 5] was 7.42 (1.95) % injected dose/gram tissue, the “Accumulated amount in tissue: Kidney” value [1, 5] was 26.82 (8.71) % injected dose/gram tissue and the “Accumulated amount in tissue: Liver” value [1, 5] was 4.57 (2.10) % injected dose/gram tissue. The “Accumulated amount in tissue: Lung” value [1, 5] was 2.38 (0.57) % injected dose/gram tissue and the “Accumulated amount in tissue: Stomach” value [1, 5] was 0.79 (0.30) % injected dose.

From US20120065367A1, “Radioactively Labeled Substance” (priority 2009, published 2012)
